Reference: patent US20170184612A1, “USE OF LEUKOCYTES AND NOVEL BIOMARKERS IN THE DIAGNOSIS, CONFIRMATION, AND TREATMENT OF A NEUROLOGICAL DISORDER” (The Trustees of Columbia University in the City of New York, priority 2014, published 2017)

Tests used:
[1] = tested on: hES derived DA neuronal cultures; assay: MHC-I induction in hES-derived DA neurons, immunofluorescence; type: cell-based, human; details: 100 ng/ml, 72h
Method: (§1) hES derived DA neuronal cultures were obtained as described (Kriks et al., 2011). Briefly, H9 human ES cells were subjected to dual SMAD-inhibition followed by exposure to sonic hedgehog, purmorphamine, FGF8 and CHIR99021. Neurons were passaged on day 20, replated on glass-bottom dishes on day 30 at a density of 200.000 cells per 20 μl droplet, and then matured in Neurobasal media with the addition of B27 supplement, GDNF, BDNF, ascorbic acid, cAMP, TGFbeta and DAPT. hES derived spinal motor neuron (MN) cultures expressing EYFP under control of the human synapsin promoter were generated by exposure to dual SMAD-inhibition followed by caudalization with retinoid acid and ventralization through the hedgehog pathway. MN aggregates were replated on day 20 and matured in Neurobasal media with the addition of B27 supplement, GDNF, BDNF, ascorbic acid, cAMP and DAPT.
(§2) Cultures were treated with human IFN-γ (eBioscience) at a non-toxic concentration for hES (100 ng/ml, 72h). Cultures were then incubated with the MHC-I antibody prior to fixation in 4% paraformaldehyde and double immunofluorescence for TH and MHC-I as above. Micrographs were acquired using a Leica TCS SP5-II inverted confocal microscope.

[2] = tested on: hES derived spinal motor neuron (MN) cultures; assay: MHC-I induction in hES-derived motor neurons, immunofluorescence; type: cell-based, human; details: 100 ng/ml, 72h
Method: as §1, §2

[3] = tested on: primary TH+ neurons (SN, VTA, LC); assay: MHC-I induction in murine primary catecholamine neurons, immunofluorescence; type: cell-based, mouse
From the text: To study the mechanisms underlying the preferential display of MHC-I by catecholamine neurons, primary neuronal cultures of >7 days in vitro prepared from 0-3 day old C57BL/6 mice were examined in the studies herein (Sulzer et al., 2008). DA neurons from VTA and SN and NE neurons of the LC were identified by immunolabel for TH. MHC-I staining was examined using an antibody raised against the H-2K^b and H-2D^b class I mouse alloantigens.
B6.129P2-B2m^tm1Unc/J mice were generated by a targeted disruption of the β2m gene, and have little or no MHC-I protein expression on the cell surface^68. […]
(§3) Images were captured using a Leica SP5 microscope system. There was no fluorescence bleed-through of secondary antibodies under the conditions used. […]
(§4) In order to assess the proportion of TH^+ and MAP-2^+ neurons that expressed MHC-I^+, first TH^+ and MAP-2^+ neurons were counted in 24 fields surrounding the border of the well at 20× magnification. The number of TH^+ or MAP-2^+ neurons with intact soma and two or more neurites equal to or greater than the diameter of the cell soma was counted. […]

VM DA (TH+) neurons = assay: Antigen processing and presentation, […]-MHC-I immunolabel; type: cell-based, mouse; details: OVA 7 days, then IFN-γ 72 h
Method: Following exposure of SN neuronal cultures to OVA or vehicle for 7 days, neurons were exposed to IFN-γ or saline for 72 h (note that these cultures were never exposed to […] (SEQ ID NO: 9)). The cultures were then double immunolabeled for TH and an antibody that recognizes only the MHC-I complex when is occupied by […] (SEQ ID NO: 9) ([…]-MHC-I). Occasional label of astrocytes, but not neurons, for […]-MHC-I was observed when the cultures were exposed to the vehicle, IFN-γ, or OVA alone (FIG. 5A). […] The results herein indicate that OVA had been processed to […] (SEQ ID NO: 9) within these mixed neuron/astrocyte cultures and loaded into the MHC-I groove within neuronal cytosol, and that the resulting complex was presented on the neuronal plasma membrane.
IFN-γ (R&D Systems) was used at a range of non-toxic concentrations for neurons or OT-1 cells (10 μg/ml-100 ng/ml, 72h). […]
as §3, §4

B1: human IFN-γ: human IFN-γ (eBioscience), proinflammatory cytokine (protein, UniProt P01579 24-161, looked up)
Interferon gamma: QDPYVKEAENLKKYFNAGHSDVADNGTLFLGILKNWKEESDRKIMQSQIVSFYFKLFKNFKDDQSIQKSVETIKEDMNVKFFNSNKKKRDDFEKLTNYSVTDLNVQRKAIHELIQVMAELSPAAKTGKRKRSQMLFRG
- plasma membrane expression of MHC-I by TH+ neurons [1]: virtually all TH+ neurons
- MHC-I expression in mature motor neurons [2]: no MHC-I expression was observed

B2: IFN-γ: recombinant mouse IFN-γ (R&D Systems) (protein)
chain: HGTVIESLESLNNYFNSSGIDVEEKSLFLDIWRNWQKDGDMKILQSQIISFYLRLFEVLKDNQAISNNISVIESHLITTFFSNSKAKKDAFMSIAKFEVNNPQVQRQAFNELIRVVHQLLPESSLRKRKRSRC
- MHC-I (H-2Kb and H-2Db) immunolabel ([3]; neurons from β2m deficient (MHC-I null, KO) mice): did not induce MHC-I
- plasma membrane MHC-I expression on TH+ neurons ([3]; wild type C57BL/6 neurons): induced robust plasma membrane neuronal MHC-I expression

B3: OVA: chicken OVA, a 385 amino acid foreign protein (protein, UniProt P01012 2-386, looked up)
Ovalbumin: GSIGAASMEFCFDVFKELKVHHANENIFYCPIAIMSALAMVYLGAKDSTRTQINKVVRFDKLPGFGDSIEAQCGTSVNVHSSLRDILNQITKPNDVYSFSLASRLYAEERYPILPEYLQCVKELYRGGLEPINFQTAADQARELINSWVESQTNGIIRNVLQPSSVDSQTAMVLVNAIVFKGLWEKAFKDEDTQAMPFRVTEQESKPVQMMYQIGLFRVASMASEKMKILELPFASGTMSMLVLLPDEVSGLEQLESIINFEKLTEWTSSNVMEERKIKVYLPRMKMEEKYNLTSVLMAMGITDVFSSSANLSGISSAESLKISQAVHAAHAEINEAGREVVGSAEAGVDAASVSEEFRADHPFLFCIKHIATNAVLFFGRCVSP
- TH+ neurons immunolabeled for SIINFEKL-MHC-I (VM DA (TH+) neurons): ~10%
